Assay results: US20260217835A1

Target: GCH065-G1T6v2/L0011-kT0
Test: CIEX peak area ratio; coexpression from mRNAs (heavy 1/light/heavy 2 = 1/4/1) in Expi293 cells

Sequence of GCH065-G1T6v2/L0011-kT0 (heavy, as listed by the source): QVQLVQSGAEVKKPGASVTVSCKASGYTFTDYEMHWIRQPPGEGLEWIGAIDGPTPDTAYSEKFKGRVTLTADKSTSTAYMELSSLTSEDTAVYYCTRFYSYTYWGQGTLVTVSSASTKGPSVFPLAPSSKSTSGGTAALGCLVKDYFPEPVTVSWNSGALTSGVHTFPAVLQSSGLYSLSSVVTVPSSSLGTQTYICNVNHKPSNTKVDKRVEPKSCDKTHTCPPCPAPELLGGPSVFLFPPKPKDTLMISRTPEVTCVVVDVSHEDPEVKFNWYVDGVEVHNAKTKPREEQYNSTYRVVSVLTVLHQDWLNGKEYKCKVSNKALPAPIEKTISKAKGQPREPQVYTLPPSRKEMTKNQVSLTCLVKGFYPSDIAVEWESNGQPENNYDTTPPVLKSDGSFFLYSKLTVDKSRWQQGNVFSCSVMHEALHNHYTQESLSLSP

Heavy chain heteromultimer (TG, T1G2, QJ, Q3J4) (%): 2.07%
B1: TR01H113-G1T6/L0011-kT0 (antibody, human IgG1, kappa, V domains shown)
VH: QVQLVESGGGVVQPGGSLRLSCAASGFTFSNAWMHWVRQAPGKGLEWVAQIKDKSQNYATYVAESVKGRFTISRADSKNSIYLQMNSLKTEDTAVYYCRYVHYAAGYGVDIWGQGTTVTVSS
VL: DIVMTQSPLSLPVTPGEPASISCRSSQPLVHSNRNTYLHWYQQKPGQAPRLLIYKVSNRFSGVPDRFSGSGSGTDFTLKISRVEAEDVGVYYCGQGTQVPYTFGQGTKLEIKR
